Holding throughout (assay): cell-based or functional assay
In assay [1] the target is HIV-1 APV13 envelope glycoprotein (Env) (HIV-1).
For assay [2], the target named is HIV-1 Env of isolate 92BR020 (HIV-1).
The target of assay [3] is HIV-1 Env of isolate MGRM-A-001 (HIV-1).
Assay [4] concerns the target HIV-1 Env of isolate MGRM-A-002 (HIV-1).
Assay [5] deals with HIV-1 Env of isolate MGRM-A-005 (HIV-1).
Assay [6] addresses HIV-1 Env of isolate MGRM-A-011 (HIV-1).
Assay [7] addresses HIV-1 JR-CSF Env I323A (HIV-1 isolate JR-CSF) (UniProt P20871).
In assay [8] the target is HIV-1 JR-CSF Env I415A (HIV-1 (isolate JR-CSF)) (UniProt P20871).
Assay [9] has as its target HIV-1 JR-CSF Env N355A (HIV-1 isolate JR-CSF) (UniProt P20871).
In assay [10] the target is HIV-1 JR-CSF Env N392Q (HIV-1 (isolate JR-CSF)) (UniProt P20871).
The target of assay [11] is HIV-1 JR-CSF Env R327A (HIV-1 isolate JR-CSF) (UniProt P20871).
The target of assay [12] is HIV-1 JR-CSF Env T202A (HIV-1 JR-CSF) (UniProt P20871).
In assay [13] the target is HIV-1 JR-CSF Env T413A (HIV-1 (isolate JR-CSF)) (UniProt P20871).
Assay [14] deals with HIV-1 MGRM-C-028 envelope glycoprotein (Env) (HIV-1).

On to PGT-121 (antibody), for which the IC50 neutralization was 0.316 µg/mL in assay [1] and 1.19 µg/mL in assay [14]. This substance also returned a Primary Neutralization Index (B cell culture well 4838 L06) in assay [2] of 4.9. In addition, the Primary Neutralization Index (B cell culture well 4873 E03) in assay [2] was determined as 3.6. Also, the IC50 (µg/mL), pseudovirus neutralization in assay [3] was above 50 µg/mL; in [4], 0.013 µg/mL; in assay [5], above 50 µg/mL; in assay [6], above 50 µg/mL. Besides, the Fold IC50 increase relative to wild-type was 1.9 fold in assay [7]; 0.6 fold in assay [8]; 1.4 fold in assay [9]; 0.9 fold in assay [10]; 2.5 fold in assay [11]; 1.2 fold in assay [12]. Moreover, the Fold IC50 increase relative to wild-type in [13] was 0.5 fold.

As for PGT-122 (antibody), the IC50 neutralization in assay [1] amounted to 0.992 µg/mL; in assay [14], 2.06 µg/mL. Further, the IC50 (µg/mL), pseudovirus neutralization in assay [3] is above 50 µg/mL; in assay [4] it was 0.017 µg/mL; in [5] it was above 50 µg/mL; in [6], above 50 µg/mL. In addition, the Fold IC50 increase relative to wild-type came out at 2.2 fold in assay [7]; 0.4 fold in assay [8]; 0.8 fold in assay [9]; 1 fold in assay [10]; 1.7 fold in assay [11]; 1.5 fold in assay [12]. The substance also displayed a Fold IC50 increase relative to wild-type in assay [13] of 0.8 fold.
